The test system of experiment [1] is sensitive EOC cell lines, their Taxotere or Cisplatin resistant counterparts and colon, endometrial, lung, prostate, bladder, hepatocellular cancer cell lines. The experiment is described as follows: TACS MTT cell viability, Abciximab in cancer versus non-cancer cells. In kind it is cell-based, human. The conditions noted are these: increasing doses of Abciximab; cancer cells compared to non-cancer cells; FIG. 1A. The text has this:
FIGS. 1A-1E. Anti-cancer effects of Abciximab and NIF. (FIG. 1A) Anti-cancer effects of Abciximab in sensitive EOC cell lines (A2780, MDAH-2774, SKOV-3, OV90, TOV21G, OV112D, OV433, and HTB-161) and their Taxotere or Cisplatin resistant counterparts, human macrophages, and other cancer cell lines including colon (HTB-37), endometrial (CRL-1671), lung (CCL-257), prostate (CRL-1740), bladder (HTB-4), and hepatocellular (HB-8065) cancers, in vitro. (FIG. 1B) The combined effect of Abciximab alone or in combination with Cisplatin in both sensitive A2780 and their (FIG. 1C) Cisplatin resistant counterpart in vitro. […] (FIG. 1E) Anti-cancer effects of NIF in both sensitive A2780 and their Cisplatin resistant counterpart in vitro.
Cell viability was determined using the TACS MTT Cell Proliferation Assay (Trevigen, Gaithersburg, Md.) per the manufacturer's protocol. Briefly, measurement of cell proliferation is based upon the reduction of the tetrazolium salt, 3,[4,5-dimethytthiazol-2-yl]-2,5-diphenyl-tetrazolium bromide (MTT). MTT is reduced to an insoluble formazan dye by mitochondrial enzymes associated with metabolic activity of living cells. […] Absorbance was measured at 570 nm. […] A standard curve was constructed utilizing the OD readings correlating with each standard point and was utilized to determine cell number in the test samples. […]

The test system of experiment [2] is A2780 sensitive and cisplatin resistant EOC cells. The experiment is described as follows: TACS MTT cell viability in A2780 cells. To be noted: Abciximab combined with cisplatin, CI<1 indicates synergism, FIGS. 1B-1D. Type of experiment: cell-based, human. The procedure:
FIGS. 3A-3E. Cell viability in A2780 sensitive and cisplatin resistant EOC cells after treatment with integrin αV and integrin β1 antibody. (FIG. 3A) A2780 chemosensitive and (FIG. 3B) cisplatin resistant EOC cells were treated with or without integrin αV and integrin β1 antibody alone or in combination and viability was assessed using the TACS MTT Cell Proliferation Assay.
FIGS. 4A and 4B. Integrin αV and integrin β1 antibodies cross-react with a potential soluble target in EOC cell media. To test whether media collected from A2780 EOC cells contains a target that cross-reacts with the integrin αV or integrin β1 monoclonal antibodies, cells were cultured for 48 hours followed by removal of media. Either mouse anti-integrin αV or mouse anti-integrin β1 antibody was incubated with the conditioned cell culture media for 24 hours to block the antibody with the unknown target. […]
Cell viability was determined using the TACS MTT Cell Proliferation Assay (Trevigen, Gaithersburg, Md.) per the manufacturer's protocol. […] Absorbance was measured at 570 nm. […] A standard curve was constructed utilizing the OD readings correlating with each standard point and was utilized to determine cell number in the test samples.
Cell Viability was Determined Using the TACS MTT Cell Proliferation Assay (Trevigen, Gaithersburg, Md.) per the manufacturer's protocol. […]

B1: Abciximab (antibody, chains of the INN, looked up, V domains shown)
VH: EVQLQQSGTVLARPGASVKMSCEASGYTFTNYWMHWVKQRPGQGLEWIGAIYPGNSDTSYIQKFKGKAKLTAVTSTTSVYMELSSLTNEDSAVYYCTLYDGYYVFAYWGQGTLVTVSA
VL: EIVLTQSPVTLSVTPGDSVSLSCRASRDISNNLHWFQQTSHESPRLLIKYASQSMSGIPSRFSGSGSGTDFTLSINSVETEDFGMYFCQQTNSWPYTFGGGTKLEIK
modifications: Fab
B1: the “anti-cancer activity (cell viability)” value in experiment [1] is recorded as “significant”. Besides, the “effect of combination with cisplatin” value in experiment [2] was “synergistic effect”.
